Tests used:
Test in all cases: anti-His co-IP of rCHI3L1 from Kupffer cell lysate, MS; listed under 'proteins bound to CHI3L1'
Q5FW97_MOUSE = molecular target: T1, Q5FW97_MOUSE (mouse, UniProt Q5FW97 2-434)
T1 construct: also called tr|Q5FW97|Q5FW97_MOUSE
Protocol: (§1) CHI3L1 interacts with CD44 on KCs. To further understand how CHI3L1 mediates the function of KCs to recruit platelets, the inventors set out to identify its receptor on KCs. They isolated KCs from WT mice treated with APAP for 3 h and incubated the cells with His-tagged rCHI3L1. The cell lysate was subjected to immunoprecipitation using an anti-His antibody. The “pulled down” fraction was subjected to LC/MS analyses. A partial list of proteins identified, including CHI3L1 itself, is shown in (Extended Data Table 1). Because CD44 is a cell membrane protein, the inventors decided to investigate it is a receptor for CHI3L1. They performed/immunoprecipitation experiments using liver homogenates obtained from WT and CD44^{-/-} mice after APAP treatment. […] Moreover, the inventors incubated rhCHI3L1 with human CD44 and then immunoprecipitated with an anti-CD44 antibody. The data confirmed a direct binding between CHI3L1 and CD44 (FIG. 3C). Consistent with the notion that many cell types express CD44, they detected CD44 express on various hepatic non-parenchymal cells (NPCs) except B cells and DCs (summarized in Extended Data Table 2). However, when they incubated liver NPCs with His-tagged rCHI3L1, the inventors observed that the only CD44-expressing cells that could bind to CHI3L1 were KCs (FIG. 3D).

Q3TVM2_MOUSE = molecular target: T2, Q3TVM2_MOUSE (mouse, UniProt Q3TVM2 20-519)
T2 construct: also called tr|Q3TVM2|Q3TVM2_MOUSE
T2 sequence: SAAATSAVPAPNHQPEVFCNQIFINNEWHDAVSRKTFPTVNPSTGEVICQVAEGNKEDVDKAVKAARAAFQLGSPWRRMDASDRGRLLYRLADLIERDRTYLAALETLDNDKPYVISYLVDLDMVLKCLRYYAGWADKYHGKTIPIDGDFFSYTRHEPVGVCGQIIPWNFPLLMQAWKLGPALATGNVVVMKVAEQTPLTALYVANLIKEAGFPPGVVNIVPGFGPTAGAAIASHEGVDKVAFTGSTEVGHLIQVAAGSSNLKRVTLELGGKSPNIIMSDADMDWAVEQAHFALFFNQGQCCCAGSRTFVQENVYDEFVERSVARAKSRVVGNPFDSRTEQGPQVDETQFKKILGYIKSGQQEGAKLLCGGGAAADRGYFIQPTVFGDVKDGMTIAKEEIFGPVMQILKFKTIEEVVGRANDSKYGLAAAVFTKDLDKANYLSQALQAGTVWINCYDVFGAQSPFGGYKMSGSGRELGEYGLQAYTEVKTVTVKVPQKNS
Protocol: as §1

D3Z041_MOUSE = molecular target: T3, D3Z041_MOUSE (mouse, UniProt D3Z041 1-699)
T3 construct: also called tr|D3Z041|D3Z041_MOUSE
T3 sequence: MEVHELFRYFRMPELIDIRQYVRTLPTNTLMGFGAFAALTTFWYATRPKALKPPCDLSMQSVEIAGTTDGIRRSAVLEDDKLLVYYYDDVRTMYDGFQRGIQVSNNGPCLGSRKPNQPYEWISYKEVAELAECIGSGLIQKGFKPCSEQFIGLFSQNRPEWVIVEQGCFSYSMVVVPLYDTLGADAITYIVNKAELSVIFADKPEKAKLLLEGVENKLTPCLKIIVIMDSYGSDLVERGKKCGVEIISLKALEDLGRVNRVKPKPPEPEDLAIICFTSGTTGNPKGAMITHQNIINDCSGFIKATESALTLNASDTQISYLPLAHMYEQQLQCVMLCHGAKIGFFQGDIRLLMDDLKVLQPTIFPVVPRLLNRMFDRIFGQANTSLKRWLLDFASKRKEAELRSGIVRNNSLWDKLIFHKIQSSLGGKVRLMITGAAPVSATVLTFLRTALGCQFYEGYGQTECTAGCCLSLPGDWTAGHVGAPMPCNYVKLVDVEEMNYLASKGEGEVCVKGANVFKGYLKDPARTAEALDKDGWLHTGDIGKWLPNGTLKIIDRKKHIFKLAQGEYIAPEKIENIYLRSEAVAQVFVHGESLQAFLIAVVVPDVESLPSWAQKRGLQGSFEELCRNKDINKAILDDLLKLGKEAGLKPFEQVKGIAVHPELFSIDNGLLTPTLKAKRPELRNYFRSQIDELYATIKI
Protocol: as §1

Q8C6E3_MOUSE = molecular target: T4, Q8C6E3_MOUSE (mouse, UniProt Q8C6E3 2-527)
T4 construct: also called tr|Q8C6E3|Q8C6E3_MOUSE
T4 sequence: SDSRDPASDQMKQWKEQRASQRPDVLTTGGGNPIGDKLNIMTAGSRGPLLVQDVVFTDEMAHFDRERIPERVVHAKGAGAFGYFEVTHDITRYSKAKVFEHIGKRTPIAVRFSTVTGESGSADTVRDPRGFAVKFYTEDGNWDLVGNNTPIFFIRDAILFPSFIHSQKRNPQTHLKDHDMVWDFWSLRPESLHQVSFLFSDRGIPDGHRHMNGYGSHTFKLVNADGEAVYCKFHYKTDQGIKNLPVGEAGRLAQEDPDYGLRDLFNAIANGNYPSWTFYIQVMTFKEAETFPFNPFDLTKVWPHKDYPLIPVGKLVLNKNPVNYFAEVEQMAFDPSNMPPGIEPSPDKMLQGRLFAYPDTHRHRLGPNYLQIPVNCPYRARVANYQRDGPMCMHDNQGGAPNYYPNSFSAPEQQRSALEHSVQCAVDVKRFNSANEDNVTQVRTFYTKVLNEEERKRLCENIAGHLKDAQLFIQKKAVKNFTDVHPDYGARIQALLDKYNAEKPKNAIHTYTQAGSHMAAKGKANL
Protocol: as §1

T1 sequence (Q5FW97 entry or part of it limits assumed): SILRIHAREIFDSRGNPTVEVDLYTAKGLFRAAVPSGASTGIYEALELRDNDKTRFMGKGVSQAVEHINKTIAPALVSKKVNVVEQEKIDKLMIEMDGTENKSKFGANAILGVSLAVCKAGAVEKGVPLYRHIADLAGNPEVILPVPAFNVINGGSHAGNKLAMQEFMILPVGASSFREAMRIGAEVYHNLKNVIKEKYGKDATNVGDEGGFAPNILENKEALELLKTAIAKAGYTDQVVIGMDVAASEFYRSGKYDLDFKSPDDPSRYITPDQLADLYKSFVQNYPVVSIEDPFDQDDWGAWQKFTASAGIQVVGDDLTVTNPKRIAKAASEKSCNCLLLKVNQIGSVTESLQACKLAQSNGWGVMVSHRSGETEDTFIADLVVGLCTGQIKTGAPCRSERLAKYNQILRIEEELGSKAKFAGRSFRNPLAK

binding result (Q5FW97_MOUSE): binds
binding result (Q3TVM2_MOUSE): binds
binding result (D3Z041_MOUSE): binds
binding result (Q8C6E3_MOUSE): binds
B1: recombinant mouse CHI3L1 (ligand)
chain: not shown
notes: His-tagged; also called mCHI3L1; mChi3l1

From patent publication US20240294670A1 (University of Texas, published 2024)
